Each block holds one binder with its values, some of them ahead of it.
Columns and labels:
Experiment in all cases: holdup assay
Design in all cases: key: below the threshold = too weak to quantify, mostly under pKd 3.1 to 4
APBA2_2, Q99767 = molecular target: T1, APBA2_2, Q99767
T1 sequence (Q99767 654-744, limits assumed, looked up): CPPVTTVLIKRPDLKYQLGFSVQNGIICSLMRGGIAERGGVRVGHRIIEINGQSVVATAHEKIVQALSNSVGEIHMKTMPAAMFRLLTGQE

APBA3_1, O96018 = molecular target: T2, APBA3_1, O96018
T2 sequence (O96018 389-490, limits assumed, looked up): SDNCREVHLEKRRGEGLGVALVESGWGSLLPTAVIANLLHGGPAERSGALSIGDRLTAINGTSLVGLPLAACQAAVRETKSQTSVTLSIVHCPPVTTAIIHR

DFNB31_1, Q9P202 = molecular target: T3, DFNB31_1, Q9P202
T3 sequence (Q9P202 135-233, limits assumed, looked up): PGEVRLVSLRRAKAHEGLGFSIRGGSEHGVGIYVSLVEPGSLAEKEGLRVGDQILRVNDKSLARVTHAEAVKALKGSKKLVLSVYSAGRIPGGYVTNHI

DLG1_2, Q12959 = molecular target: DLG1_2, Q12959
DLG1_2, Q12959, sequence (Q12959 314-412): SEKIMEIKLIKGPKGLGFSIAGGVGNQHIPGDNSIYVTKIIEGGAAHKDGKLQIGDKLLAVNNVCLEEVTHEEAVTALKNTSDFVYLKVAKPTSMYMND

DLG4_3, P78352 = molecular target: DLG4_3, P78352
DLG4_3, P78352, sequence (P78352 306-403): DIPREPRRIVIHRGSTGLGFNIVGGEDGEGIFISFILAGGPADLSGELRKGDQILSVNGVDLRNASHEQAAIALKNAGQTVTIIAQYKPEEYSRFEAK

FRMPD2_2, Q68DX3 = molecular target: FRMPD2_2, Q68DX3
FRMPD2_2, Q68DX3, sequence (Q68DX3 944-1038): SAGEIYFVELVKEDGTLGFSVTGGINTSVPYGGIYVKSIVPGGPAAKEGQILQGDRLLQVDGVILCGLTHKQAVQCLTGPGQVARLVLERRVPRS

FRMPD2_3, Q68DX3 = molecular target: FRMPD2_3, Q68DX3
FRMPD2_3, Q68DX3, sequence (Q68DX3 1073-1166): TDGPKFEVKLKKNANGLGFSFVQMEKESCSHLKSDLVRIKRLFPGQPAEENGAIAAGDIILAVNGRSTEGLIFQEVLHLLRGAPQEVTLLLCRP

GRASP, Q7Z6J2 = molecular target: GRASP, Q7Z6J2
GRASP, Q7Z6J2, sequence (Q7Z6J2 96-193): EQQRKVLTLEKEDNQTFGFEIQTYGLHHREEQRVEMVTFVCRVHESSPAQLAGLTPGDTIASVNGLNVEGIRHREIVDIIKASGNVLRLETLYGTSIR

GRIP1_2, Q9Y3R0 = molecular target: T4, GRIP1_2, Q9Y3R0
T4 sequence (Q9Y3R0 145-248, limits assumed, looked up): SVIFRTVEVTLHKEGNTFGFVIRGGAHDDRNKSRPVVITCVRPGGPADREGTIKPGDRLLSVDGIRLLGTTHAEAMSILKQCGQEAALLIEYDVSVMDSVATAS

HTRA3, P83110 = molecular target: T5, HTRA3, P83110
T5 sequence (P83110 354-453, limits assumed, looked up): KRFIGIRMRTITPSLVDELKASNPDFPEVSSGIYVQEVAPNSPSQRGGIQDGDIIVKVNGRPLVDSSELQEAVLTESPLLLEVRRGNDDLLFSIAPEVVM

Inadl_5, Q8NI35 = molecular target: Inadl_5, Q8NI35
Inadl_5, Q8NI35, sequence (Q8NI35 673-780): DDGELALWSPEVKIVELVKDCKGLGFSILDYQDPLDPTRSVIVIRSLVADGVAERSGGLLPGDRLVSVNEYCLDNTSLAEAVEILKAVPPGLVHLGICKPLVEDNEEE

Inadl_8, Q8NI35 = molecular target: Inadl_8, Q8NI35
Inadl_8, Q8NI35, sequence (Q8NI35 1425-1530): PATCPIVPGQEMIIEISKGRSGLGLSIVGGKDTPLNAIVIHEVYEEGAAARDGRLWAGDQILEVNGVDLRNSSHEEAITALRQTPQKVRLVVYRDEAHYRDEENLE

LNX1_3, Q8TBB1 = molecular target: LNX1_3, Q8TBB1
LNX1_3, Q8TBB1, sequence (Q8TBB1 500-596): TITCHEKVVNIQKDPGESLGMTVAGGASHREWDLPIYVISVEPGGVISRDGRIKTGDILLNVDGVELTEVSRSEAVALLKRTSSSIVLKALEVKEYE

LRRC7, Q96NW7 = molecular target: T6, LRRC7, Q96NW7
T6 sequence (Q96NW7 1440-1537, limits assumed, looked up): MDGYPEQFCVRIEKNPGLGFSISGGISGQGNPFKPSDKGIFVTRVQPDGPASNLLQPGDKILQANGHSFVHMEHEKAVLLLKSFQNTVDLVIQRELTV

MAGI2_4, Q86UL8 = molecular target: MAGI2_4, Q86UL8
MAGI2_4, Q86UL8, sequence (Q86UL8 772-865): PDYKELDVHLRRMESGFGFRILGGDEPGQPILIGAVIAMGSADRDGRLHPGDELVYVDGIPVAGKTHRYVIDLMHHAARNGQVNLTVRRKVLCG

MAGI2_6, Q86UL8 = molecular target: MAGI2_6, Q86UL8
MAGI2_6, Q86UL8, sequence (Q86UL8 1141-1229): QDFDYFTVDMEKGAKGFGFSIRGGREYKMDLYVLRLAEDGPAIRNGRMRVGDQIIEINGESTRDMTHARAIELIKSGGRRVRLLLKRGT

MPP6, Q9NZW5 = molecular target: T7, MPP6, Q9NZW5
T7 sequence (Q9NZW5 125-219, limits assumed, looked up): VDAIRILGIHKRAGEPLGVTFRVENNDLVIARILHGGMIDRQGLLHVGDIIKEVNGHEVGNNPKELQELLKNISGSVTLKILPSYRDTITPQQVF

NHERF3_1, Q5T2W1 = molecular target: T8, NHERF3_1, Q5T2W1
T8 sequence (Q5T2W1 4-100, limits assumed, looked up): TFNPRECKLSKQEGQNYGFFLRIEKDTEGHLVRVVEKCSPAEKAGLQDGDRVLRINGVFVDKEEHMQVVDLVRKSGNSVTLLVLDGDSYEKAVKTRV

NHERF4_2, Q86UT5 = molecular target: NHERF4_2, Q86UT5
NHERF4_2, Q86UT5, sequence (Q86UT5 220-308): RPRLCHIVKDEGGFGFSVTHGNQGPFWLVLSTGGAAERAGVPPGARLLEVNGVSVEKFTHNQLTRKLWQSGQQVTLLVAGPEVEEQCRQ

PDZD2_2, O15018 = molecular target: T9, PDZD2_2, O15018
T9 sequence (O15018 329-429, limits assumed, looked up): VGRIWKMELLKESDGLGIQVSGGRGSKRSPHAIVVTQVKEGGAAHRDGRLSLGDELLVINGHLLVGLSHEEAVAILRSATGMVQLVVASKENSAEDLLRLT

PTPN13_1, Q12923 = molecular target: T10, PTPN13_1, Q12923
T10 sequence (Q12923 1088-1188, limits assumed, looked up): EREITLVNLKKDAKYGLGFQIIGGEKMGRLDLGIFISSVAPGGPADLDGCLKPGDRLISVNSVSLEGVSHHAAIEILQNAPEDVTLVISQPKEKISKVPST

SIPA1L2, Q9P2F8 = molecular target: T11, SIPA1L2, Q9P2F8
T11 sequence (Q9P2F8 945-1036, limits assumed, looked up): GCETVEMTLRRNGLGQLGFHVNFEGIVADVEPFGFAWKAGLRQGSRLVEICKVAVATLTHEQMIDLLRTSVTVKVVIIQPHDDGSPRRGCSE

SNTA1, Q13424 = molecular target: T12, SNTA1, Q13424
T12 sequence (Q13424 82-180, limits assumed, looked up): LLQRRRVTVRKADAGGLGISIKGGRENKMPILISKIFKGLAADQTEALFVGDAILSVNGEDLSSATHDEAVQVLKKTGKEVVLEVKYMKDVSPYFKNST

SNTG2, Q9NY99 = molecular target: T13, SNTG2, Q9NY99
T13 sequence (Q9NY99 68-166, limits assumed, looked up): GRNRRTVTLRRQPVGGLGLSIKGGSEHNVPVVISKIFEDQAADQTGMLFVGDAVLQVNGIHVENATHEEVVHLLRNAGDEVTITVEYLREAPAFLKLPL

SNX27, Q96L92 = molecular target: SNX27, Q96L92
[1] = plain residues with an end cap or a label only (N-terminal biotin on a linker: ttds)
[2] = plain residues with an end cap or a label only (N-terminal biotin on a linker: ahx)

pKd (APBA2_2, Q99767; [1]): below the threshold
pKd (APBA3_1, O96018; [1]): below the threshold
pKd (DFNB31_1, Q9P202; [1]): 3.95
pKd (DLG1_2, Q12959; [1]): 4.71
pKd (DLG4_3, P78352; [1]): 4.03
pKd (FRMPD2_2, Q68DX3; [1]): below the threshold
pKd (FRMPD2_3, Q68DX3; [1]): below the threshold
pKd (GRASP, Q7Z6J2; [1]): 3.66
pKd (GRIP1_2, Q9Y3R0; [1]): below the threshold
pKd (HTRA3, P83110; [1]): below the threshold
pKd (Inadl_5, Q8NI35; [1]): below the threshold
pKd (Inadl_8, Q8NI35; [1]): below the threshold
pKd (LNX1_3, Q8TBB1; [1]): below the threshold
pKd (LRRC7, Q96NW7; [1]): below the threshold
pKd (MAGI2_4, Q86UL8; [1]): below the threshold
pKd (MAGI2_6, Q86UL8; [1]): 3.89
pKd (MPP6, Q9NZW5; [1]): below the threshold
pKd (NHERF3_1, Q5T2W1; [1]): 5.56
pKd (NHERF4_2, Q86UT5; [1]): below the threshold
pKd (PDZD2_2, O15018; [1]): below the threshold
pKd (PTPN13_1, Q12923; [1]): below the threshold
pKd (SIPA1L2, Q9P2F8; [1]): below the threshold
pKd (SNTA1, Q13424; [1]): 4.49
pKd (SNTG2, Q9NY99; [1]): 4.18
pKd (SNX27, Q96L92; [1]): 5
B1: MAPK12, P53778 (peptide)
chain: GARVSKETPL

pKd (APBA2_2, Q99767; [1]): below the threshold
pKd (APBA3_1, O96018; [1]): below the threshold
pKd (DFNB31_1, Q9P202; [1]): below the threshold
pKd (DLG1_2, Q12959; [1]): 4.38
pKd (DLG4_3, P78352; [1]): below the threshold
pKd (FRMPD2_2, Q68DX3; [1]): below the threshold
pKd (FRMPD2_3, Q68DX3; [1]): below the threshold
pKd (GRASP, Q7Z6J2; [1]): 3.86
pKd (GRIP1_2, Q9Y3R0; [1]): below the threshold
pKd (HTRA3, P83110; [1]): below the threshold
pKd (Inadl_5, Q8NI35; [1]): below the threshold
pKd (Inadl_8, Q8NI35; [1]): 4.89
pKd (LNX1_3, Q8TBB1; [1]): 3.55
pKd (LRRC7, Q96NW7; [1]): below the threshold
pKd (MAGI2_4, Q86UL8; [1]): 3.69
pKd (MAGI2_6, Q86UL8; [1]): 4.02
pKd (MPP6, Q9NZW5; [1]): below the threshold
pKd (NHERF3_1, Q5T2W1; [1]): 4.31
pKd (NHERF4_2, Q86UT5; [1]): below the threshold
pKd (PDZD2_2, O15018; [1]): 4.93
pKd (PTPN13_1, Q12923; [1]): below the threshold
pKd (SIPA1L2, Q9P2F8; [1]): below the threshold
pKd (SNTA1, Q13424; [1]): below the threshold
pKd (SNTG2, Q9NY99; [1]): below the threshold
pKd (SNX27, Q96L92; [1]): 3.53
B2: GDA, Q9Y2T3 (peptide)
chain: KQVVPFSSSV

pKd (APBA2_2, Q99767; [2]): below the threshold
pKd (APBA3_1, O96018; [2]): below the threshold
pKd (DFNB31_1, Q9P202; [2]): below the threshold
pKd (DLG1_2, Q12959; [2]): 4.37
pKd (DLG4_3, P78352; [2]): below the threshold
pKd (FRMPD2_2, Q68DX3; [2]): 3.99
pKd (FRMPD2_3, Q68DX3; [2]): below the threshold
pKd (GRASP, Q7Z6J2; [2]): 4.31
pKd (GRIP1_2, Q9Y3R0; [2]): below the threshold
pKd (HTRA3, P83110; [2]): below the threshold
pKd (Inadl_5, Q8NI35; [2]): below the threshold
pKd (Inadl_8, Q8NI35; [2]): 3.64
pKd (LNX1_3, Q8TBB1; [2]): below the threshold
pKd (LRRC7, Q96NW7; [2]): below the threshold
pKd (MAGI2_4, Q86UL8; [2]): 3.64
pKd (MAGI2_6, Q86UL8; [2]): 4.55
pKd (MPP6, Q9NZW5; [2]): below the threshold
pKd (NHERF3_1, Q5T2W1; [2]): 3.88
pKd (NHERF4_2, Q86UT5; [2]): below the threshold
pKd (PDZD2_2, O15018; [2]): 4.51
pKd (PTPN13_1, Q12923; [2]): below the threshold
pKd (SIPA1L2, Q9P2F8; [2]): below the threshold
pKd (SNTA1, Q13424; [2]): below the threshold
pKd (SNTG2, Q9NY99; [2]): below the threshold
pKd (SNX27, Q96L92; [2]): 4.36
B3: DLL1, O00548 (peptide)
chain: KDECVIATEV
